The values that follow come from PMC11969024 (2025).

First the molecules themselves.
B1: peptide HD2 (from tick evasin EVA4) / CXCL11 (biotinylated, synthetic) (parent complex)
chain 1: EEDDYTAYAPLTCYFT
chain 2: FPMFKRGRCLCIGPGVKAVKVADIEKASIMYPSNNCDKIEVIITLKENKGQRCLNPKSKQARLIIKKVERKNF

In this experiment the parent is B1.
As for chain 1 EEDDYTAYAPLTLYFT [chain 1 C13L], the enrichment is -8.45 log2 (difference from the parental peptide). With chain 1 EEDDYTAYAPLTPYFT [chain 1 C13P], the enrichment was -5.74 log2 (difference from the parental peptide). As to chain 1 EEDDYTAYAPLTHYFT [chain 1 C13H], the enrichment was -5.78 log2 (difference from the parental peptide). Turning to chain 1 EEDQYTAYAPLTCYFT [chain 1 D4Q], the enrichment is -3.62 log2 (difference from the parental peptide). As to chain 1 EEDYYTAYAPLTCYFT [chain 1 D4Y], the enrichment was -4.43 log2 (difference from the parental peptide).

For chain 1 EEDDHTAYAPLTCYFT [chain 1 Y5H], the enrichment was -0.00324 log2 (difference from the parental peptide).

Take chain 1 EEDDLTAYAPLTCYFT [chain 1 Y5L]: the enrichment is -4.33 log2 (difference from the parental peptide). With chain 1 EADDYTAYAPLTCYFT [chain 1 E2A], the enrichment is -2.47 log2 (difference from the parental peptide). The value for chain 1 ENDDYTAYAPLTCYFT [chain 1 E2N] was -4.96 log2 (difference from the parental peptide); that for chain 1 EVDDYTAYAPLTCYFT [chain 1 E2V] was -1.84 log2 (difference from the parental peptide); that for chain 1 EDDDYTAYAPLTCYFT [chain 1 E2D] was 0.953 log2 (difference from the parental peptide).

As for chain 1 EWDDYTAYAPLTCYFT [chain 1 E2W], the enrichment was 1.67 log2 (difference from the parental peptide). The value for chain 1 ELDDYTAYAPLTCYFT [chain 1 E2L] was -1.04 log2 (difference from the parental peptide). To chain 1 EEDDYTYYAPLTCYFT [chain 1 A7Y] belongs 2.5 log2 (difference from the parental peptide). As to chain 1 EEDDYTIYAPLTCYFT [chain 1 A7I], the enrichment was 1.35 log2 (difference from the parental peptide). The value for chain 1 EEDDYTAYAPKTCYFT [chain 1 L11K] was -4.12 log2 (difference from the parental peptide); that for chain 1 EEDDYTAYAPFTCYFT [chain 1 L11F] was 2.94 log2 (difference from the parental peptide). The value for chain 1 EEDDYTATAPLTCYFT [chain 1 Y8T] was -5.62 log2 (difference from the parental peptide); that for chain 1 EEDDYTAGAPLTCYFT [chain 1 Y8G] was -1.09 log2 (difference from the parental peptide); that for chain 1 EEDDYTALAPLTCYFT [chain 1 Y8L] was -0.881 log2 (difference from the parental peptide). The value for chain 1 EEDDYTAAAPLTCYFT [chain 1 Y8A] was -0.869 log2 (difference from the parental peptide). Take chain 1 EEDDYTAWAPLTCYFT [chain 1 Y8W]: the enrichment is 2.23 log2 (difference from the parental peptide). The value for chain 1 EEDDYTAYAPLTCYFN [chain 1 T16N] was -3.84 log2 (difference from the parental peptide); that for chain 1 EEDDYTAYAPLTCYFW [chain 1 T16W] was 0.43 log2 (difference from the parental peptide); that for chain 1 EEDDYTAYAPLTCYFG [chain 1 T16G] was 0.304 log2 (difference from the parental peptide). For the variant chain 1 EEDDYTAYAPLTCYFK [chain 1 T16K], the enrichment was -4.41 log2 (difference from the parental peptide). With chain 1 EEDDYTAYAPLTCYFA [chain 1 T16A], the enrichment was -0.756 log2 (difference from the parental peptide). For chain 1 EEDDYTAYSPLTCYFT [chain 1 A9S], the enrichment is -0.211 log2 (difference from the parental peptide). To chain 1 EEDDYTAYGPLTCYFT [chain 1 A9G] belongs -1.08 log2 (difference from the parental peptide).

Regarding chain 1 EEDDYTAYFPLTCYFT [chain 1 A9F], the enrichment was -0.826 log2 (difference from the parental peptide). Turning to chain 1 EEDDYTAYPPLTCYFT [chain 1 A9P], the enrichment was 0.549 log2 (difference from the parental peptide). Turning to chain 1 EEDDYTAYYPLTCYFT [chain 1 A9Y], the enrichment is -4.48 log2 (difference from the parental peptide). To chain 1 EEIDYTAYAPLTCYFT [chain 1 D3I] belongs -2.24 log2 (difference from the parental peptide); to chain 1 EEGDYTAYAPLTCYFT [chain 1 D3G], -4.59 log2 (difference from the parental peptide). As for chain 1 EELDYTAYAPLTCYFT [chain 1 D3L], the enrichment was -0.828 log2 (difference from the parental peptide). Consider chain 1 EEDDYTAYAPLTCLFT [chain 1 Y14L], for which the enrichment was -3.92 log2 (difference from the parental peptide).

As to chain 1 EEDDYTAYAPLTCAFT [chain 1 Y14A], the enrichment was -7.18 log2 (difference from the parental peptide).

In the case of chain 1 EEDDYTAYAPLTCWFT [chain 1 Y14W], the enrichment is -6.01 log2 (difference from the parental peptide). The value for chain 1 EEDDYEAYAPLTCYFT [chain 1 T6E] was 3.52 log2 (difference from the parental peptide); that for chain 1 EEDDYLAYAPLTCYFT [chain 1 T6L] was 3.05 log2 (difference from the parental peptide). On to chain 1 EEDDYVAYAPLTCYFT [chain 1 T6V], for which the enrichment was -0.999 log2 (difference from the parental peptide). As for chain 1 EEDDYTAYAPLCCYFT [chain 1 T12C], the enrichment was -5.77 log2 (difference from the parental peptide). In the case of chain 1 EEDDYTAYAPLLCYFT [chain 1 T12L], the enrichment was -0.306 log2 (difference from the parental peptide). The value for chain 1 EEDDYTAYAPLPCYFT [chain 1 T12P] was -0.00384 log2 (difference from the parental peptide).

With chain 1 EEDDYTAYAPLNCYFT [chain 1 T12N], the enrichment is -0.502 log2 (difference from the parental peptide). On to chain 1 GEDDYTAYAPLTCYFT [chain 1 E1G], for which the enrichment was -4.38 log2 (difference from the parental peptide). With chain 1 MEDDYTAYAPLTCYFT [chain 1 E1M], the enrichment was 0.144 log2 (difference from the parental peptide). For the variant chain 1 WEDDYTAYAPLTCYFT [chain 1 E1W], the enrichment is 1.25 log2 (difference from the parental peptide). Consider chain 1 QEDDYTAYAPLTCYFT [chain 1 E1Q], for which the enrichment is 2.79 log2 (difference from the parental peptide). The value for chain 1 SEDDYTAYAPLTCYFT [chain 1 E1S] was -1.7 log2 (difference from the parental peptide).

With chain 1 HEDDYTAYAPLTCYFT [chain 1 E1H], the enrichment is -5.11 log2 (difference from the parental peptide). The value for chain 1 TEDDYTAYAPLTCYFT [chain 1 E1T] was -1.21 log2 (difference from the parental peptide); that for chain 1 FEDDYTAYAPLTCYFT [chain 1 E1F] was -0.271 log2 (difference from the parental peptide); that for chain 1 EEDDYTAYAGLTCYFT [chain 1 P10G] was 2.73 log2 (difference from the parental peptide). For chain 1 EEDDYTAYATLTCYFT [chain 1 P10T], the enrichment was -0.0022 log2 (difference from the parental peptide). For the variant chain 1 EEDDYTAYAALTCYFT [chain 1 P10A], the enrichment is -0.641 log2 (difference from the parental peptide).
